What was measured:
[1] = target: T1, HDAC3 (Homo sapiens, UniProt O15379); test: GST pull-down of sLZIP with HDAC3 in 293T cells; type: binding
T1 construct: expressed in transfected cells; host or cells: 293T
Procedure: 293T cells were obtained and washed with cold PBS. The cells were re-suspended in an IP lysis buffer [25 mM of Tris-HCl (pH 7.4), 150 mM of NaCl, 1 mM of EDTA, 1% NP-40 and 5% glycerol, and a protease inhibitor]. A suspension was centrifuged at 16,000×g for 20 minutes at 4° C. Supernatants were collected and incubated with 0.5 μg of appropriate antibodies and 25 μl of protein A/G-agarose or a GST Sepharose 4B bead for 24 hours at 4° C. A protein complex was centrifuged at 1,000×g with a cold IP lysis buffer for 1 minute and washed five times. The final pellet was re-suspended in 50 μl of an SDS-sample buffer containing 5% β-mercaptoethanol and heated for 10 minutes at 100° C. A protein sample was isolated in SDS-PAGE (8 to 10%) and transferred to nitrocellulose membranes. Co-precipitated proteins were detected according to western blotting using specific antibodies.
For this purpose, 293T cells were transiently transfected with PPARγ2 (0.5 μg), β-galactosidase (0.1 μg), FABP4-Luc reporter genes (0.2 μg) and sLZIP (0.1 μg). […] A promoter activity was measured according to luciferase analysis. […] After the transfection, the cells were stimulated with or without 10 nM of RZD, and a promoter activity was measured (FIG. 4B). […] GFP-sLZIP expression constructs were expressed in C3H10T1/2 cells, rabbit anti-HDAC3 antibodies and Texas Red-labeled anti-rabbit antibodies were used and analysis was performed under a fluorescence microscope. […] A protein complex was analyzed in SDS-PAGE, and anti-GST and anti-Flag antibodies were used for immunoblotting (FIG. 4E). *, P<0.05; **, P<0.01
For this purpose, 293T cells were transfected with GST-PPARγ2 and Flag-sLZIP and were treated or not treated with 10 nM of RZD for 24 hours. […] A protein complex was analyzed in SDS-PAGE, and immunoblotted with anti-GST and anti-Flag antibodies. […] The cell lysates were GST pull-down analyzed (FIG. 5C). […] The cell lysates were GST pull-down analyzed (FIG. 5D). […] A protein complex was analyzed in SDS-PAGE, and then immunoblotted with anti-NCoR1 and anti-Flag antibodies (FIG. 5E). […]

[2] = target: T1, HDAC3; test: HDAC3 ubiquitination, GST pull-down with Ha-UB in 293T cells; type: cell-based; details: ligand treated (10 nM RZD, 24 hours)
Procedure: (§1) Therefore, in order to understand a regulation mechanism of sLZIP in the PPARγ2 transcriptional activity by binding to the FABP4 promoter region, an effect of sLZIP on the interaction between PPARγ2 and HDAC3 was examined. For this purpose, 293T cells were transfected with GST-HDAC3, Myc-PPARγ2 and Flag-sLZIP, and were treated or not treated with 10 nM of RZD for 24 hours. Cell lysates were subjected to GST pull-down analysis using a glutathione 4B bead, and a protein complex was analyzed in SDS-PAGE, and then immunoblotted with anti-GST, anti-Myc and anti-Flag antibodies (FIG. 6A). GST-HDAC3, GST-PPARγ2, Myc-PPARγ2, Flag-sLZIP and Ha-UB were expressed in the 293T cells, and the cells were treated with 10 nM of RZD for 24 hours. Cell lysates were subjected to GST pull-down analysis (FIG. 6B). GST-PPARγ2 and Flag-sLZIP were expressed in the 293T cells and treated with 10 nM of RZD for 24 hours. Cell lysates were subjected to GST pull-down analysis, and a protein complex was analyzed in SDS-PAGE, and then immunoblotted with anti-PGC1α, anti-GST and anti-Flag antibodies (FIG. 6C).

[3] = target: T2, PPARγ2 and PGC1α (Homo sapiens, UniProt P37231); test: GST pull-down, coactivator PGC1α on PPARγ2; type: binding; details: 10 nM RZD for 24 hours
T2 construct: expressed in transfected cells; host or cells: 293T (PGC1α endogenous)
T2 sequence (P37231 1-505): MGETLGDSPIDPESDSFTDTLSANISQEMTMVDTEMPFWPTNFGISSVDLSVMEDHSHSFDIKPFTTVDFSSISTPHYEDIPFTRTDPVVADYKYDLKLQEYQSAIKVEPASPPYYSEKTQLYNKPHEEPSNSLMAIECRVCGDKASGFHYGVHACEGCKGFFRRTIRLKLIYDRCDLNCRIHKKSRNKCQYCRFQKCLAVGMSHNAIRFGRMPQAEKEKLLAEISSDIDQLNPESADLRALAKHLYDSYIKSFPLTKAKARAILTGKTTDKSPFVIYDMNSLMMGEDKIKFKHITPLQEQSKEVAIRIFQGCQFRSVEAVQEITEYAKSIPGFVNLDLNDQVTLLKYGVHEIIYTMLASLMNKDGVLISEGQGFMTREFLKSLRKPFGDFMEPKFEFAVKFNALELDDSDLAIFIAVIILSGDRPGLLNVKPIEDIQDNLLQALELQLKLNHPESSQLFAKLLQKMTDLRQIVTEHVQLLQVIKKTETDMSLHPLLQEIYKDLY
Procedure: as §1

[4] = Solubility in saline or buffer solution; type: physicochemical

T1 sequence (O15379 whole entry, species assumed): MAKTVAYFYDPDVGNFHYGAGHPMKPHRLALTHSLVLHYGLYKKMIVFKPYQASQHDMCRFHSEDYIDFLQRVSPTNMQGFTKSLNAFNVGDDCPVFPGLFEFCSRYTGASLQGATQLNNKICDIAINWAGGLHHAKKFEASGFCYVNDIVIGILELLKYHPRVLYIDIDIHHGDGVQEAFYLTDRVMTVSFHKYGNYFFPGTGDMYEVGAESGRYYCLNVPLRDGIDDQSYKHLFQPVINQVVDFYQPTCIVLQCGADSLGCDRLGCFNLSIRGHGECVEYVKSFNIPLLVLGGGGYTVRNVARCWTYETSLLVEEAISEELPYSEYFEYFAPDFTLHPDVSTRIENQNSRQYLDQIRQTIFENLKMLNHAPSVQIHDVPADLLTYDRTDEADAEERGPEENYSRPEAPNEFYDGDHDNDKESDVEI

B1: sLZIP: human small leucine-zipper protein, isoform of LZIP, 354 amino acids, no transmembrane domain, GenBank FJ263669, SEQ ID NO: 1 (protein, listed as Homo sapiens)
chain: MELELDAGDQDLLAFLLEESGDLGTAPDEAVRAPLDWALPLSEVPSDWEVDDLLCSLLSPPASLNILSSSNPCLVHHDHTYSLPRETVSMDLESESCRKEGTQMTPQHMEELAEQEIARLVLTDEEKSLLEKEGLILPETLPLTKTEEQILKRVRRKIRNKRSAQESRRKKKVYVGGLESRVLKYTAQNMELQNKVQLLEEQNLSLLDQLRKLQAMVIEISNKTSSSSMYSSDTRGSLPAEHGVLSRQLRALPSEDPYQLELPALQSEVPKDSTHQWLDGSDCVLQAPGNTSCLLHYMPQAPSAEPPLEWPFPDLFSEPLCRGPILPLQANLTRKGGWLPTGSPSVILQDRYSG
- interaction with HDAC3 ([1]; 10 nM RZD for 24 hours): remained as being interacted with sLZIP
- interaction with HDAC3 ([1]; GST-HDAC3 and Flag-sLZIP, 293T cells, GST pull-down): interacted with HDAC3
- interaction with HDAC3 in a PPARγ2 corepressor complex ([1]; no RZD treated): interacted with HDAC3
- HDAC3 ubiquitination [2]: inhibited HDAC3 ubiquitination
- complementing of coactivator PGC-la for PPARγ2 [3]: inhibited
- solubility [4]: very soluble
